Reference: paper PMC7467569, “The Progesterone 5β-Reductase/Iridoid Synthase Family: A Catalytic Reservoir for Specialized Metabolism across Land Plants” (ACS Chemical Biology, 2020)

Legend:
Test in all cases: purified protein
[1] = substrate: C/C(C=O)=C\CC/C(C)=C/C=O; assay type: biochemical, Coccomyxa subellipsoidea; details: 250 μM NADPH, 50 mM HEPES/NaOH pH 7.0, 100 mM NaCl, 25 °C, 0.1% tetrahydrofuran
[2] = substrate: CC(=O)[C@H]1CC[C@H]2[C@@H]3CCC4=CC(=O)CC[C@]4(C)[C@H]3CC[C@]12C; assay type: biochemical, Coccomyxa subellipsoidea; details: 250 μM NADPH, 50 mM HEPES/NaOH pH 7.0, 100 mM NaCl, 25 °C, 1.5% ethanol
[3] = substrate: C/C(C=O)=C\CC/C(C)=C/C=O; assay type: biochemical, Catharanthus roseus; details: 250 μM NADPH, 50 mM HEPES/NaOH pH 7.0, 100 mM NaCl, 25 °C, 0.1% tetrahydrofuran
[4] = substrate: C/C(C=O)=C\CC/C(C)=C/C=O; details: 250 μM NADPH, 50 mM HEPES/NaOH pH 7.0, 100 mM NaCl, 25 °C, 0.1% tetrahydrofuran
[5] = substrate: CC(=O)[C@H]1CC[C@H]2[C@@H]3CCC4=CC(=O)CC[C@]4(C)[C@H]3CC[C@]12C; details: 250 μM NADPH, 50 mM HEPES/NaOH pH 7.0, 100 mM NaCl, 25 °C, 1.5% ethanol

B1: Coccomyxa subellipsoidea PRISE (Coccomyxa subellipsoidea C-169) (protein)
chain: GYVALIAGVTGVTGRNLALHLQNCDRWDAVYGGSRRPCGLGGKVKDLRMDLDNKTSLVDTLKGAQDVTHLFFCAYRPTESAATDVTTNFGMFKNVIEAGEGAGLKLKHVSFLSGTKWYGVHIGPVKTPSREDDPRAMSPNFYYDMEDYCIARVTKGADWTWSSVRPNPVCGFSTGSAMNLTMTIAVYASICKELGLPFRFPGSPQAYNVLLEVVDADLLACSMEYISTQPHAGNTSYNVSNGDVFRWSEVWPKLAAFFELPLAEPQKFSMTTMLAYHECVWQKLVEKHGLSKEVASYKDVATWGFGDWVFGQEKDWFSDVNKLRRTGFQEQNLDSAEMFLRQFKELRAAKLIP
notes: full-length synthetic gene in pOPINF, N-terminal His6 tag (no cleavage told), E. coli
Km [1]: 7.0 ± 1.6 µM
kcat [1]: 0.025 ± 0.001 s⁻¹
kcat/Km [1]: 3580 M⁻¹ s⁻¹
Km [2]: 23.6 ± 5.8 µM

B2: Catharanthus roseus 5 (PRISE5, ISY) (Catharanthus roseus) (protein)
chain: MSWWWKRSIGAGKNLPNQNKENGVCKSYKSVALVVGVTGIVGSSLAEVLKLPDTPGGPWKVYGVARRPCPVWLAKKPVEYIQCDVSDNQETISKLSPLKDITHIFYVSWIGSEDCQTNATMFKNILNSVIPNASNLQHVCLQTGIKHYFGIFEEGSKVVPHDSPFTEDLPRLNVPNFYHDLEDILYEETGKNNLTWSVHRPALVFGFSPCSMMNIVSTLCVYATICKHENKALVYPGSKNSWNCYADAVDADLVAEHEIWAAVDPKAKNQVLNCNNGDVFKWKHIWKKLAEEFGIEMVGYVEGKEQVSLAELMKDKDQVWDEIVKKNNLVPTKLKEIAAFWFADIAFCSENLISSMNKSKELGFLGFRNSMKSFVSCIDKMRDYRFIP
notes: codon-optimized gene from earlier study in pOPINF, N-terminal His6 tag (no cleavage told), E. coli
Km [3]: 8.5 ± 1.5 µM

B3: Arabidopsis thaliana 1 (PRISE1) (Arabidopsis thaliana) (protein)
chain: SWWWAGAIGAAKKKLDEDEPSQSFESVALIIGVTGIVGNSLAEILPLSDTPGGPWKVYGVARRPRPTWNADHPIDYIQCDVSDAEDTRSKLSPLTDVTHVFYVTWTNRESESENCEANGSMLRNVLQAIIPYAPNLRHVCLQTGTKHYLGPFTNVDGPRHDPPFTEDMPRLQIQNFYYTQEDILFEEIKKIETVTWSIHRPNMIFGFSPYSLMNIVGTLCVYAAICKHEGSPLLFPGSKKAWEGFMTASDADLIAEQQIWAAVDPYAKNEAFNCNNADIFKWKHLWKILAEQFGIEEYGFEEGKNLGLVEMMKGKERVWEEMVKENQLQEKKLEEVGVWWFADVILGVEGMIDSMNKSKEYGFLGFRNSNNSFISWIDKYKAFKIVP
Km [4]: 41.8 ± 2.75 µM
kcat [4]: 0.155 ± 0.004 s⁻¹
kcat/Km [4]: 3710 M⁻¹ s⁻¹
Km [5]: 6.0 ± 2.5 µM

B4: Arabidopsis thaliana 2 (PRISE2) (Arabidopsis thaliana) (protein)
chain: GSENGSLMRRNEVDENVALIFGVTGLVGREIVKTLLMSKPGWRIYGVARNPEINSMTKMYNFISCDLLNASETKQRLSPLQDIVSHVFWVTWSGEFPLDTDECCVQNKTMLMNALDAILPNAKRLKHFSLQTGMKHYVSLVEETMARGEGSSLYYYSEECPRKSSGKNFYYVLEDLLKEKITRSSVVWSVQRPGLLMGSSSRTLYNFMGSLCVYGAMCKYLNLPFVFGGTRECWEESYIDGSDSNLVAEQHIFAATSGKVREKGEAFNAINGVGFTWKEIWPEIGKKLGVQVNETTMFDEGFWFGREMVERKHVWDEIVVKEKLVRTEIEDLANWYFLDALFRCPFKLLGKREKVDRFGFKRKYRTLDSVLYWIDVMRDEKLIPL
Km [5]: 5.7 ± 2.3 µM
